From US20140286859A1 (published 2014)
Where “and” joins values, the source holds several entries; their conditions need not be identical. Identical values can stand only once.

Target: recombinant soluble PSMA (rsPSMA) (human, UniProt Q04609 44-750)
Sequence (Q04609 44-750): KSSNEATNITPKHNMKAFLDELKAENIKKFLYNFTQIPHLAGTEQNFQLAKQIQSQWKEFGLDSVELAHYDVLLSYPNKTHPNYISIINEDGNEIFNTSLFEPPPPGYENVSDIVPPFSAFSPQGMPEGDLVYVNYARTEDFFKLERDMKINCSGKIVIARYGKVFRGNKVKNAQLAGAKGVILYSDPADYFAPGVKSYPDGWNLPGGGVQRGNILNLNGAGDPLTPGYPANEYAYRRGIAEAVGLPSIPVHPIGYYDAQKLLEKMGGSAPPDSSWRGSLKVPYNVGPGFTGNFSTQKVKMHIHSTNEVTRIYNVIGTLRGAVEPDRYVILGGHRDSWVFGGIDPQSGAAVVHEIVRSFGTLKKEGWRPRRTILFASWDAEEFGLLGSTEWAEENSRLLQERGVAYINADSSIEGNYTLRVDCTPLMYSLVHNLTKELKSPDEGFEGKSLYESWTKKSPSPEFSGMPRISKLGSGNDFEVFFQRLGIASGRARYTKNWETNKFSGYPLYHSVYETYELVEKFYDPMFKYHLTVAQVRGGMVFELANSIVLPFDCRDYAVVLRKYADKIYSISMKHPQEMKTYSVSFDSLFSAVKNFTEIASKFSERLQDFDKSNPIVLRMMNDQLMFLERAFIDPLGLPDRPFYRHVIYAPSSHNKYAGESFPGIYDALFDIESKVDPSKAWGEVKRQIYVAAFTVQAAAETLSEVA

B1: PSMA 10.3 (antibody, V domains shown)
VH: QEQLVESGGGVVQPGRSLRLSCAASGFTFSTYGMHWVRQAPGKGLEWVAVTWHDGSNKYYADSVKGRFTISRDNSKNTLYLQMNSLRAEDTAVYYCARGGVGATYYYYYGMDVWGQGTTVTVSS
VL: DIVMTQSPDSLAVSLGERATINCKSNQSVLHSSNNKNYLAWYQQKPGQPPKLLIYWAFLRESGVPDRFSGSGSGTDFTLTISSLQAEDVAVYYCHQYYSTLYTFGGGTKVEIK
Q: How did the koff turn out when B1 was run?
A: 6.32e-05 s⁻¹ and 6.43e-05 s⁻¹
